Publication PMC4931181
pKd: −log10 of the molar value. “And” between values parts separate entries of the source, which are not always exact repeats. Equal entries are not always repeated. Where two headings read alike, the source gives them in different places.

Experiments:
[1] = tested on: H2A-H2B heterodimer (Xenopus laevis); test: EMSA
[2] = tested on: H2A-H2B heterodimer;yNap1 (Xenopus laevis;Saccharomyces cerevisiae); test: EMSA
[3] = target: yNap1_IF1 (G225D, S237D, T244D, D246R) (Saccharomyces cerevisiae) (UniProt P25293); test: native MS
[4] = target: yNap1_IF1 (G225D, S237D, T244D, D246R) (Saccharomyces cerevisiae) (UniProt P25293); test: native MS; remark: listed apart in the source

stoichiometry N [3] | stoichiometry N [4] | Substance | pKd [1] | pKd [2]
– | – | (H3-H4)2-DNA tetrasome on 147-bp 601 DNA | 7.54 | 6.03
2 and 4 | 2 | yNap1_IF1 (G225D, S237D, T244D, D246R) (from UniProt P25293 1-417) (natural protein) | – | –
